B1: DGL278 (bispecific antibody, human IgG1, lambda)
heavy: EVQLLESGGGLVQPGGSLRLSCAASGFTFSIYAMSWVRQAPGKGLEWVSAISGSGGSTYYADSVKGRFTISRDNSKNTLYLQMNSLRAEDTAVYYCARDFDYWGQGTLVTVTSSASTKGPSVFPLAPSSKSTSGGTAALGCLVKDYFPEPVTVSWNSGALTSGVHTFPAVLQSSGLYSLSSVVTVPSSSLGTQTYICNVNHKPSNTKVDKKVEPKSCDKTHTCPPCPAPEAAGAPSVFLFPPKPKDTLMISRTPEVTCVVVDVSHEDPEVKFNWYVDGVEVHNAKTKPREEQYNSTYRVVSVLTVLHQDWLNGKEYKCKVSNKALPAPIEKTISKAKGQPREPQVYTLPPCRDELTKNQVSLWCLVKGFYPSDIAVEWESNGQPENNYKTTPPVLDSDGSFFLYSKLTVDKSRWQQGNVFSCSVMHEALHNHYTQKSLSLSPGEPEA
light: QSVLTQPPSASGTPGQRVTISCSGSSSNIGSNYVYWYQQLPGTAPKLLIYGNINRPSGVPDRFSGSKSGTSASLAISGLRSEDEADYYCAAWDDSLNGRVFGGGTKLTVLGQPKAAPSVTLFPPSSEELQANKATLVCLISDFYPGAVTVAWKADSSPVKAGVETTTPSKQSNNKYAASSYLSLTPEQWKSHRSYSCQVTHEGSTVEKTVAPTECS
chain: EVQLLESGGGLVQPGGSLRLSCAASGFTFSIYAMSWVRQAPGKGLEWVSAISGSGGSTYYADSVKGRFTISRDNSKNTLYLQMNSLRAEDTAVYYCARDFDYWGQGTLVTVTSSGGGGSGGGGSGGGGSQSVLTQPPSASGTPGQRVTISCSGSSSNIGSNYVYWYQQLPGTAPKLLIYGNINRPSGVPDRFSGSKSGTSASLAISGLRSEDEADYYCAAWDDSLNGRVFGGGTKLTVLDKTHTCPPCPAPEAAGAPSVFLFPPKPKDTLMISRTPEVTCVVVDVSHEDPEVKFNWYVDGVEVHNAKTKPREEQYNSTYRVVSVLTVLHQDWLNGKEYKCKVSNKALPAPIEKTISKAKGQPREPQVCTLPPSRDELTKNQVSLSCAVKGFYPSDIAVEWESNGQPENNYKTTPPVLDSDGSFFLVSKLTVDKSRWQQGNVFSCSVMHEALHNHYTQKSLSLSPGKWSHPQFEK
B2: DGL276 (bispecific antibody)
chain 1: EVQLLESGGGLVQPGGSLRLSCAASGFTFSSYAMSWVRQAPGKGLEWVANINQDGSEKNYVDSMRGRFTISRDNSKNTLYLQMNSLRAEDTAVYYCAREFDYWGQGTLVTVTSSGGGGSGGGGSGGGGSQSVLAQPPSASGTPGQRVTISCSGSSSNIGSNYVYWYQQLPGTAPKLLIYGNNKRPSGVPDRFSGSKSGTSASLAISGLRSEDEADYYCAAWDDSLNGRVFGGGTKLTVLCPPCPAPEAAGAPSVFLFPPKPKDTLMISRTPEVTCVVVDVSHEDPEVKFNWYVDGVEVHNAKTKPREEQYNSTYRVVSVLTVLHQDWLNGKEYKCKVSNKALPAPIEKTISKAKGQPREPQVYTLPPCRDELTKNQVSLWCLVKGFYPSDIAVEWESNGQPENNYKTTPPVLDSDGSFFLYSKLTVDKSRWQQGNVFSCSVMHEALHNHYTQKSLSLSPGEPEA
chain 2: EVQLLESGGGLVQPGGSLRLSCAASGFTFSDYYMTWIRQAPGKGLEWVSSISGGSTYYADSRKGRFTISRDNSENTLYLQMNSLRAEDTAVYYCARDFGVAGWFGQYGMDVWGQGTLVTVSSGGGGSGGGGSGGGGSQSVLTQPPSASGTPGQRVTISCTGSSSNIGAGYDVHWYQQLPGTAPKLLIYRSNQRPSGVPDRFSGSKSGTSASLAISGLRSEDEADYYCSSYAGNYNLVFGGGTKLTVLCPPCPAPEAAGAPSVFLFPPKPKDTLMISRTPEVTCVVVDVSHEDPEVKFNWYVDGVEVHNAKTKPREEQYNSTYRVVSVLTVLHQDWLNGKEYKCKVSNKALPAPIEKTISKAKGQPREPQVCTLPPSRDELTKNQVSLSCAVKGFYPSDIAVEWESNGQPENNYKTTPPVLDSDGSFFLVSKLTVDKSRWQQGNVFSCSVMHEALHNHYTQKSLSLSPGWSHPQFEK
B3: DGL277 (bispecific antibody)
chain 1: EVQLLESGGGLVQPGGSLRLSCAASGFTFSSYAMSWVRQAPGKGLEWVANINQDGSEKNYVDSMRGRFTISRDNSKNTLYLQMNSLRAEDTAVYYCAREFDYWGQGTLVTVTSSGGGGSGGGGSGGGGSQSVLAQPPSASGTPGQRVTISCSGSSSNIGSNYVYWYQQLPGTAPKLLIYGNNKRPSGVPDRFSGSKSGTSASLAISGLRSEDEADYYCAAWDDSLNGRVFGGGTKLTVLPLAPCPPCPAPEAAGAPSVFLFPPKPKDTLMISRTPEVTCVVVDVSHEDPEVKFNWYVDGVEVHNAKTKPREEQYNSTYRVVSVLTVLHQDWLNGKEYKCKVSNKALPAPIEKTISKAKGQPREPQVYTLPPCRDELTKNQVSLWCLVKGFYPSDIAVEWESNGQPENNYKTTPPVLDSDGSFFLYSKLTVDKSRWQQGNVFSCSVMHEALHNHYTQKSLSLSPGEPEA
chain 2: EVQLLESGGGLVQPGGSLRLSCAASGFTFSDYYMTWIRQAPGKGLEWVSSISGGSTYYADSRKGRFTISRDNSENTLYLQMNSLRAEDTAVYYCARDFGVAGWFGQYGMDVWGQGTLVTVSSGGGGSGGGGSGGGGSQSVLTQPPSASGTPGQRVTISCTGSSSNIGAGYDVHWYQQLPGTAPKLLIYRSNQRPSGVPDRFSGSKSGTSASLAISGLRSEDEADYYCSSYAGNYNLVFGGGTKLTVLPLAPCPPCPAPEAAGAPSVFLFPPKPKDTLMISRTPEVTCVVVDVSHEDPEVKFNWYVDGVEVHNAKTKPREEQYNSTYRVVSVLTVLHQDWLNGKEYKCKVSNKALPAPIEKTISKAKGQPREPQVCTLPPSRDELTKNQVSLSCAVKGFYPSDIAVEWESNGQPENNYKTTPPVLDSDGSFFLVSKLTVDKSRWQQGNVFSCSVMHEALHNHYTQKSLSLSPGWSHPQFEK
B4: DGL281 (bispecific antibody, human IgG1, lambda)
heavy: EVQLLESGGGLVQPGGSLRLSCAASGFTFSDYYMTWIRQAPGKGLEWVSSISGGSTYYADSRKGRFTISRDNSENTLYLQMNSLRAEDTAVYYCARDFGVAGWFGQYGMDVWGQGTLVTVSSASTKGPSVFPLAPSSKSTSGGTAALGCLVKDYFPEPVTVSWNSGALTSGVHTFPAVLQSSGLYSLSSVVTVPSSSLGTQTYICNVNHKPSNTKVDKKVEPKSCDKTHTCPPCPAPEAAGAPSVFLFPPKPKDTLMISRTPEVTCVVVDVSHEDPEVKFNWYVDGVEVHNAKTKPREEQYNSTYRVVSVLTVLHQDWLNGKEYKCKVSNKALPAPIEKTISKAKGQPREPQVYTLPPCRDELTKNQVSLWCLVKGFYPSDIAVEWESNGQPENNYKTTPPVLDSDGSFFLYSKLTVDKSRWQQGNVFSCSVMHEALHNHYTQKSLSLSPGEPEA
light: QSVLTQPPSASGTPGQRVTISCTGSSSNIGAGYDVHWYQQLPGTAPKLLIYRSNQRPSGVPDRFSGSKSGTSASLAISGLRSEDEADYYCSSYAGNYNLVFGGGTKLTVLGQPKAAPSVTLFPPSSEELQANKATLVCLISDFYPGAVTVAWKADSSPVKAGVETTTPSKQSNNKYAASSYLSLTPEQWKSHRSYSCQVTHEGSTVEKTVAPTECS
chain: EVQLLESGGGLVQPGGSLRLSCAASGFTFSDYYMTWIRQAPGKGLEWVSSISGGSTYYADSRKGRFTISRDNSENTLYLQMNSLRAEDTAVYYCARDFGVAGWFGQYGMDVWGQGTLVTVSSGGGGSGGGGSGGGGSQSVLTQPPSASGTPGQRVTISCTGSSSNIGAGYDVHWYQQLPGTAPKLLIYRSNQRPSGVPDRFSGSKSGTSASLAISGLRSEDEADYYCSSYAGNYNLVFGGGTKLTVLDKTHTCPPCPAPEAAGAPSVFLFPPKPKDTLMISRTPEVTCVVVDVSHEDPEVKFNWYVDGVEVHNAKTKPREEQYNSTYRVVSVLTVLHQDWLNGKEYKCKVSNKALPAPIEKTISKAKGQPREPQVCTLPPSRDELTKNQVSLSCAVKGFYPSDIAVEWESNGQPENNYKTTPPVLDSDGSFFLVSKLTVDKSRWQQGNVFSCSVMHEALHNHYTQKSLSLSPGKWSHPQFEK
B5: DGL275 (bispecific antibody)
chain 1: not shown
chain 2: EVQLLESGGGLVQPGGSLRLSCAASGFTFSDYYMTWIRQAPGKGLEWVSSISGGSTYYADSRKGRFTISRDNSENTLYLQMNSLRAEDTAVYYCARDFGVAGWFGQYGMDVWGQGTLVTVSSGGGGSGGGGSGGGGSQSVLTQPPSASGTPGQRVTISCTGSSSNIGAGYDVHWYQQLPGTAPKLLIYRSNQRPSGVPDRFSGSKSGTSASLAISGLRSEDEADYYCSSYAGNYNLVFGGGTKLTVLDKTHTCPPCPAPEAAGAPSVFLFPPKPKDTLMISRTPEVTCVVVDVSHEDPEVKFNWYVDGVEVHNAKTKPREEQYNSTYRVVSVLTVLHQDWLNGKEYKCKVSNKALPAPIEKTISKAKGQPREPQVCTLPPSRDELTKNQVSLSCAVKGFYPSDIAVEWESNGQPENNYKTTPPVLDSDGSFFLVSKLTVDKSRWQQGNVFSCSVMHEALHNHYTQKSLSLSPGWSHPQFEK
B6: DGL282 (bispecific antibody, human IgG1, lambda)
heavy 1: EVQLLESGGGLVQPGGSLRLSCAASGFTFSIYAMSWVRQAPGKGLEWVSAISGSGGSTYYADSVKGRFTISRDNSKNTLYLQMNSLRAEDTAVYYCARDFDYWGQGTLVTVTSSASVAAPSVFIFPPSDEQLKSGTASVVCLLNNFYPREAKVQWKVDNALQSGNSQESVTEQDSKDSTYSLSSTLTLSKADYEKHKVYACEVTHQGLSSPVTKSFNRGECDKTHTCPPCPAPEAAGAPSVFLFPPKPKDTLMISRTPEVTCVVVDVSHEDPEVKFNWYVDGVEVHNAKTKPREEQYNSTYRVVSVLTVLHQDWLNGKEYKCKVSNKALPAPIEKTISKAKGQPREPQVCTLPPSRDELTKNQVSLSCAVKGFYPSDIAVEWESNGQPENNYKTTPPVLDSDGSFFLVSKLTVDKSRWQQGNVFSCSVMHEALHNHYTQKSLSLSPGWSHPQFEK
light 1: QSVLTQPPSASGTPGQRVTISCSGSSSNIGSNYVYWYQQLPGTAPKLLIYGNINRPSGVPDRFSGSKSGTSASLAISGLRSEDEADYYCAAWDDSLNGRVFGGGTKLTVLSSASTKGPSVFPLAPSSKSTSGGTAALGCLVKDYFPEPVTVSWNSGALTSGVHTFPAVLQSSGLYSLSSVVTVPSSSLGTQTYICNVNHKPSNTKVDKKVEPKSC
heavy 2: not shown
light 2: not shown

These binders were tested against ALK-1/BMPR-2 receptor pair of the PathHunter U2Os dimerization cells (DiscoverX 93-0962C3) (UniProt P37023 22-503; Q13873 27-1038) (assay: cell-based or functional assay).
ALK-1/BMPR-2 receptor pair of the PathHunter U2Os dimerization cells (DiscoverX 93-0962C3), sequence (P37023 22-503, chain 1 of 2): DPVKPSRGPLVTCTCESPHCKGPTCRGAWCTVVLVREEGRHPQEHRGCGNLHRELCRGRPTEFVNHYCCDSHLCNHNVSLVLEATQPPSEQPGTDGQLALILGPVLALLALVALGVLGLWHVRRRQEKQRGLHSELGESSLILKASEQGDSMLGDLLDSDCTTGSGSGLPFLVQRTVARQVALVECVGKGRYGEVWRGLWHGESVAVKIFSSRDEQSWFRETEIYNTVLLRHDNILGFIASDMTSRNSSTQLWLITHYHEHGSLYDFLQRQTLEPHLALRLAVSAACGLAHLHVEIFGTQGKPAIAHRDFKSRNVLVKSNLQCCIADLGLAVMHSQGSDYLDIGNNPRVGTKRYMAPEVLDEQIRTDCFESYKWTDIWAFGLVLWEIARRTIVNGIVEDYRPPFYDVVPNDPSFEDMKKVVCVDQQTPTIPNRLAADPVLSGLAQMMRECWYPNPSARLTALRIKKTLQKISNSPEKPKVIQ
ALK-1/BMPR-2 receptor pair of the PathHunter U2Os dimerization cells (DiscoverX 93-0962C3), sequence (Q13873 27-1038, chain 2 of 2): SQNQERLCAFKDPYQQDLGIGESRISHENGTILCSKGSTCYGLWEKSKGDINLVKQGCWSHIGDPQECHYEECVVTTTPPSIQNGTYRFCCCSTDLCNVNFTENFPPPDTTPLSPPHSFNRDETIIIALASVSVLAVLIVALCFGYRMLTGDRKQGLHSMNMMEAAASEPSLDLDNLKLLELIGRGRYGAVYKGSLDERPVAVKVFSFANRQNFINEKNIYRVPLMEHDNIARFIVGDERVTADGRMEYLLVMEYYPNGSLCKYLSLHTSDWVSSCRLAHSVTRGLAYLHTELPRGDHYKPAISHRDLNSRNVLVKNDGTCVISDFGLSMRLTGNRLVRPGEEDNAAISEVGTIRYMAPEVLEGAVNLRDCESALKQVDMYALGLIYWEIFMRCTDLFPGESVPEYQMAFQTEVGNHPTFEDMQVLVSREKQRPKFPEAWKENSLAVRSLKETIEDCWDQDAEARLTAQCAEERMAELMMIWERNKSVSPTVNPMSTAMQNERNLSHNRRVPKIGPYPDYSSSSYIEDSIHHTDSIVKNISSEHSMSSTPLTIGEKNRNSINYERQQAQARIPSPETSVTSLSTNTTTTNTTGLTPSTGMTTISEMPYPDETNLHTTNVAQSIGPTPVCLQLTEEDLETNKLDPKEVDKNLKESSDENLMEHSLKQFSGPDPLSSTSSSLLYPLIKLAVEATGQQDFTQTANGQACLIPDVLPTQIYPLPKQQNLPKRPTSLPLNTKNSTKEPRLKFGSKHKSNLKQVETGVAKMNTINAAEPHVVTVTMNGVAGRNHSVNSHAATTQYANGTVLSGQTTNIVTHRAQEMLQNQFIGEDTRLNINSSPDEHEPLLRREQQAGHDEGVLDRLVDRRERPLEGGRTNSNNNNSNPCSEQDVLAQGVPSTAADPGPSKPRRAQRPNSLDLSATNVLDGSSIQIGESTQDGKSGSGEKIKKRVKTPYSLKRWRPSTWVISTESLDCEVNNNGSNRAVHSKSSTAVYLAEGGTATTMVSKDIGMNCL
For B1, the “% Emax BMP9” value was 26%, the “EC50” value was 14 nM and the “Emax (RLU)” value was 684000 RLU. For B2, the “% Emax BMP9” value was 43%, the “EC50” value was 1.2 nM and the “Emax (RLU)” value was 1.14e+06 RLU. B3 was tested, and the “% Emax BMP9” value was 51%, the “EC50” value was 1 nM and the “Emax (RLU)” value was 1.35e+06 RLU. B4 was tested, and the “% Emax BMP9” value was 42%, the “EC50” value was 330 nM and the “Emax (RLU)” value was 1.11e+06 RLU. With B5 the “% Emax BMP9” value was 48%, the “EC50” value was 0.9 nM and the “Emax (RLU)” value was 1.28e+06 RLU. For B6, the “% Emax BMP9” value was 36%, the “EC50” value was 170 nM and the “Emax (RLU)” value was 954000 RLU.

Source: patent publication US20250002588A1 (DIAGONAL THERAPEUTICS, published 2025)
